Measured values from patent publication US20200157236A1 (CELLDEX THERAPEUTICS, published 2020).

Biological target: T1, purified ALK protein (BLitz, Table 20) (Homo sapiens (Human), UniProt Q9UM73 19-1038, limits assumed)
T1 construct: also called purified ALK proteins
Assay: BLI (BLitz), mAb on Protein A tip, purified ALK in solution
Description: Kinetic measurements of the monovalent affinity of the 96 humanized ALK antibody variants (Ab351-Ab446) were collected. Affinity ranking was performed using a BLitz® System (ForteBio, Menlo Park, Calif.). Humanized anti-ALK antibodies were immobilized at 0.5 mg/mL using Protein A tips. Once baseline stability was ensured, purified ALK proteins at 70 μg/mL were added. The resulting kinetic data were fit to a single binding site equation, from which the quoted monovalent KD values were derived.

T1 sequence (Q9UM73 19-1038 limits assumed): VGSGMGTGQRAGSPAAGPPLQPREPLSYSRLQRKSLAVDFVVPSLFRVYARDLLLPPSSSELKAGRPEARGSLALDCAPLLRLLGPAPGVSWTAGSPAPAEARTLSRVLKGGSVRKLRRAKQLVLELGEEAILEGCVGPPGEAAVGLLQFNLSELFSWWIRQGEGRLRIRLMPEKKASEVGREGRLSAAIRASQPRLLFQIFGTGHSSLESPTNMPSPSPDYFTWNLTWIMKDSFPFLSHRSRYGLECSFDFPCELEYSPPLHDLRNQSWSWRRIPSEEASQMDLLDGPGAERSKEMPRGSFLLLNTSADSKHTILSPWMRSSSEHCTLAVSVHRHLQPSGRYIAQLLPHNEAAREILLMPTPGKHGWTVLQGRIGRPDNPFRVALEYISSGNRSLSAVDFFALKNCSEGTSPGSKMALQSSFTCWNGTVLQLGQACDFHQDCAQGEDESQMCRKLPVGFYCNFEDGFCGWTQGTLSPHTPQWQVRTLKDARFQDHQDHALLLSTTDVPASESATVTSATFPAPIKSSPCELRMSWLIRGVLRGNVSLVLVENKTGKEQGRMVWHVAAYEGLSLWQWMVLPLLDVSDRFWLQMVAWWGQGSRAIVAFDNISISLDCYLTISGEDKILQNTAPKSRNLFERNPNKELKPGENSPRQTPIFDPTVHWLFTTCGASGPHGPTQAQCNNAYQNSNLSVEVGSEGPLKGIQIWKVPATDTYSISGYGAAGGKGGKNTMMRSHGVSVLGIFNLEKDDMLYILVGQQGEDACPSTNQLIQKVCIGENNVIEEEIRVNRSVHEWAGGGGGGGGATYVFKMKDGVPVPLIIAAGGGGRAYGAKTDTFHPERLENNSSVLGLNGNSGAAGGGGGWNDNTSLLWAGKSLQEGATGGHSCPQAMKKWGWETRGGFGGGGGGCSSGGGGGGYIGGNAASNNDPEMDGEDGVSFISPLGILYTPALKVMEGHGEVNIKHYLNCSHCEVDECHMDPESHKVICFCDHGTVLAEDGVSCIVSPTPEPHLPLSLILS

| Kd [nM] | Binder |
| --- | --- |
| 219 | Ab366 (antibody, V domains shown, humanized) VH: EVQLVQSGAEVKKPGTSVKLSCKASGYTFTSYWMHWVRQARGQRLEWIGYIKPSSGYTKYAQKFQERVTLTADKSTSTAYMELSSLRSEDTAVYYCARDYYGSSSWFAYWGQGTLVTVSS VL: DIVMTQSQAFMSVTVGEKVTITCKASQNVGTNVAWYQQKPDQAPKALIYSASYRYSGVPSRFSGSGSGTDFTLTISSLEAEDAATYYCQQYNSYPYMYTFGQGTKLEIK |
| 198 | Ab368 (antibody, V domains shown, humanized) VH: EVQLVQSGAEVKKPGASVKLSCKASGYTFTSYWMHWVRQAPGQGLEWIGYIKPSSGYTKYNQKFKDKATLTADKSTSTAYMELRSLRSDDTAVYYCARDYYGSSSWFAYWGQGTLVTVSS VL: DIVMTQSQAFMSVTVGEKVTITCKASQNVGTNVAWYQQKPDQAPKALIYSASYRYSGVPSRFSGSGSGTDFTLTISSLEAEDAATYYCQQYNSYPYMYTFGQGTKLEIK |
| 130 | Ab371 (antibody, V domains shown, humanized) VH: QVQLVQSGAEVAKPGSSVKLSCKASGYTFTSYWMHWVKQAPGQGLEWIGYIKPSSGYTKYNQKFKDKATLTADKSTSTAYMELSSLRSEDTAVYYCARDYYGSSSWFAYWGQGTLVTVSS VL: DIVMTQSQAFMSVTVGEKVTITCKASQNVGTNVAWYQQKPDQAPKALIYSASYRYSGVPSRFSGSGSGTDFTLTISSLEAEDAATYYCQQYNSYPYMYTFGQGTKLEIK |
| 1490 | Ab365 (antibody, V domains shown, humanized) VH: EVQLVQSGAEVKKPGTSVKLSCKASGYTFTSSAMQWVKQAPGQGLEWIGYIKPSSGYTKYNQKFKDKATLTADKSTSTAYMELSSLRSEDTAVYYCARDYYGSSSWFAYWGQGTLVTVSS VL: DIVMTQSQAFMSVTVGEKVTITCKASQNVGTNVAWYQQKPDQAPKALIYSASYRYSGVPSRFSGSGSGTDFTLTISSLEAEDAATYYCQQYNSYPYMYTFGQGTKLEIK |
| 114 | Ab367 (antibody, V domains shown, humanized) VH: QVQLVQSGAEVAKPGASVKLSCKASGYTFTSYWMHWVKQAPGQGLEWIGYIKPSSGYTKYNQKFKDKATLTADKSTSTAYMELRSLRSDDTAVYYCARDYYGSSSWFAYWGQGTLVTVSS VL: DIVMTQSQAFMSVTVGEKVTITCKASQNVGTNVAWYQQKPDQAPKALIYSASYRYSGVPSRFSGSGSGTDFTLTISSLEAEDAATYYCQQYNSYPYMYTFGQGTKLEIK |
| 2530 | Ab370 (antibody, V domains shown, humanized) VH: EVQLVQSGAEVKKPGASVKLSCKASGYTFTSYWMHWVRQAPGQGLEWIGYIKPSSGYTKYAQKLQGRVTLTADKSTSTAYMELRSLRSDDTAVYYCARDYYGSSSWFAYWGQGTLVTVSS VL: DIVMTQSQAFMSVTVGEKVTITCKASQNVGTNVAWYQQKPDQAPKALIYSASYRYSGVPSRFSGSGSGTDFTLTISSLEAEDAATYYCQQYNSYPYMYTFGQGTKLEIK |
| 210 | Ab369 (antibody, V domains shown, humanized) VH: EVQLVQSGAEVAKPGASVKLSCKASGYTFTSYWMHWVRQAPGQGLEWIGYIKPSSGYTKYNQKFKDKATLTADKSTSTAYMELRSLRSDDTAVYYCARDYYGSSSWFAYWGQGTLVTVSS VL: DIVMTQSQAFMSVTVGEKVTITCKASQNVGTNVAWYQQKPDQAPKALIYSASYRYSGVPSRFSGSGSGTDFTLTISSLEAEDAATYYCQQYNSYPYMYTFGQGTKLEIK |
| 188 | Ab372 (antibody, V domains shown, humanized) VH: EVQLVQSGAEVKKPGSSVKLSCKASGYTFTSYWMHWVRQAPGQGLEWIGYIKPSSGYTKYNQKFKDKATLTADKSTSTAYMELSSLRSEDTAVYYCARDYYGSSSWFAYWGQGTLVTVSS VL: DIVMTQSQAFMSVTVGEKVTITCKASQNVGTNVAWYQQKPDQAPKALIYSASYRYSGVPSRFSGSGSGTDFTLTISSLEAEDAATYYCQQYNSYPYMYTFGQGTKLEIK |

The remaining lines, values behind:

| Binder | Kd [nM] |
| --- | --- |
| Ab384 (antibody, V domains shown, humanized) VH: EVQLVQSGAEVKKPGSSVKLSCKASGYTFTSYWMHWVRQAPGQGLEWIGYIKPSSGYTKYNQKFKDKATLTADKSTSTAYMELSSLRSEDTAVYYCARDYYGSSSWFAYWGQGTLVTVSS VL: EIVMTQSPAFMSVTVGEKVTITCKASQNVGTNVAWYQQKPDQSPKALIYSASYRYSGVPSRFSGSGSGTDFTLTISSLEAEDAATYYCQQYNSYPYMYTFGQGTKLEIK | 201 |
| Ab363 (antibody, V domains shown, humanized) VH: QVQLVQSGAEVAKPGTSVKLSCKASGYTFTSYWMHWVKQAPGQGLEWIGYIKPSSGYTKYNQKFKDKVTLTADKSTSTAYMELSSLRSEDTAVYYCARDYYGSSSWFAYWGQGTLVTVSS VL: DIVMTQSQAFMSVTVGEKVTITCKASQNVGTNVAWYQQKPDQAPKALIYSASYRYSGVPSRFSGSGSGTDFTLTISSLEAEDAATYYCQQYNSYPYMYTFGQGTKLEIK | 119 |
| Ab362 (antibody, V domains shown, humanized) VH: EVQLVQSGAEVKKPGSSVKLSCKASGYTFSSYWMHWVKQAPGQGLEWIGYIKPSSGYTKYAQKFQGRVTLTADKSTSTAYMELSSLRSEDTAVYYCARDYYGSSSWFAYWGQGTLVTVSS VL: EIVMTQSPAFLSVTPGEKVTITCKASQNVGTNVAWYQQKPDQAPKALIYSASYRYSGVPSRFSGSGSGTDFTLTISSLEAEDAATYYCQQYNSYPYMYTFGQGTKLEIK | 149 |
| Ab359 (antibody, V domains shown, humanized) VH: QVQLVQSGAEVAKPGSSVKLSCKASGYTFTSYWMHWVKQAPGQGLEWIGYIKPSSGYTKYNQKFKDKATLTADKSTSTAYMELSSLRSEDTAVYYCARDYYGSSSWFAYWGQGTLVTVSS VL: EIVMTQSPAFLSVTPGEKVTITCKASQNVGTNVAWYQQKPDQAPKALIYSASYRYSGVPSRFSGSGSGTDFTLTISSLEAEDAATYYCQQYNSYPYMYTFGQGTKLEIK | 100 |
| Ab351 (antibody, V domains shown, humanized) VH: QVQLVQSGAEVAKPGTSVKLSCKASGYTFTSYWMHWVKQAPGQGLEWIGYIKPSSGYTKYNQKFKDKVTLTADKSTSTAYMELSSLRSEDTAVYYCARDYYGSSSWFAYWGQGTLVTVSS VL: EIVMTQSPAFLSVTPGEKVTITCKASQNVGTNVAWYQQKPDQAPKALIYSASYRYSGVPSRFSGSGSGTDFTLTISSLEAEDAATYYCQQYNSYPYMYTFGQGTKLEIK | 120 |
| Ab364 (antibody, V domains shown, humanized) VH: EVQLVQSGPEVKKPGTSVKLSCKASGYTFTSYWMHWVRQARGQRLEWIGYIKPSSGYTKYNQKFKDRATLTADKSTSTAYMELSSLRSEDTAVYYCARDYYGSSSWFAYWGQGTLVTVSS VL: DIVMTQSQAFMSVTVGEKVTITCKASQNVGTNVAWYQQKPDQAPKALIYSASYRYSGVPSRFSGSGSGTDFTLTISSLEAEDAATYYCQQYNSYPYMYTFGQGTKLEIK | 128 |
| Ab356 (antibody, V domains shown, humanized) VH: EVQLVQSGAEVKKPGASVKLSCKASGYTFTSYWMHWVRQAPGQGLEWIGYIKPSSGYTKYNQKFKDKATLTADKSTSTAYMELRSLRSDDTAVYYCARDYYGSSSWFAYWGQGTLVTVSS VL: EIVMTQSPAFLSVTPGEKVTITCKASQNVGTNVAWYQQKPDQAPKALIYSASYRYSGVPSRFSGSGSGTDFTLTISSLEAEDAATYYCQQYNSYPYMYTFGQGTKLEIK | 128 |
| Ab360 (antibody, V domains shown, humanized) VH: EVQLVQSGAEVKKPGSSVKLSCKASGYTFTSYWMHWVRQAPGQGLEWIGYIKPSSGYTKYNQKFKDKATLTADKSTSTAYMELSSLRSEDTAVYYCARDYYGSSSWFAYWGQGTLVTVSS VL: EIVMTQSPAFLSVTPGEKVTITCKASQNVGTNVAWYQQKPDQAPKALIYSASYRYSGVPSRFSGSGSGTDFTLTISSLEAEDAATYYCQQYNSYPYMYTFGQGTKLEIK | 137 |
| Ab358 (antibody, V domains shown, humanized) VH: EVQLVQSGAEVKKPGASVKLSCKASGYTFTSYWMHWVRQAPGQGLEWIGYIKPSSGYTKYAQKLQGRVTLTADKSTSTAYMELRSLRSDDTAVYYCARDYYGSSSWFAYWGQGTLVTVSS VL: EIVMTQSPAFLSVTPGEKVTITCKASQNVGTNVAWYQQKPDQAPKALIYSASYRYSGVPSRFSGSGSGTDFTLTISSLEAEDAATYYCQQYNSYPYMYTFGQGTKLEIK | 118 |
| Ab361 (antibody, V domains shown, humanized) VH: EVQLVQSGAEVKKPGSSVKVSCKASGYTFSSYWMHWVRQAPGQGLEWIGYIKPSSGYTKYNQKFKDKATLTADKSTSTAYMELSSLRSEDTAVYYCARDYYGSSSWFAYWGQGTLVTVSS VL: EIVMTQSPAFLSVTPGEKVTITCKASQNVGTNVAWYQQKPDQAPKALIYSASYRYSGVPSRFSGSGSGTDFTLTISSLEAEDAATYYCQQYNSYPYMYTFGQGTKLEIK | 153 |
| Ab354 (antibody, V domains shown, humanized) VH: EVQLVQSGAEVKKPGTSVKLSCKASGYTFTSYWMHWVRQARGQRLEWIGYIKPSSGYTKYAQKFQERVTLTADKSTSTAYMELSSLRSEDTAVYYCARDYYGSSSWFAYWGQGTLVTVSS VL: EIVMTQSPAFLSVTPGEKVTITCKASQNVGTNVAWYQQKPDQAPKALIYSASYRYSGVPSRFSGSGSGTDFTLTISSLEAEDAATYYCQQYNSYPYMYTFGQGTKLEIK | 133 |
| Ab357 (antibody, V domains shown, humanized) VH: EVQLVQSGAEVAKPGASVKLSCKASGYTFTSYWMHWVRQAPGQGLEWIGYIKPSSGYTKYNQKFKDKATLTADKSTSTAYMELRSLRSDDTAVYYCARDYYGSSSWFAYWGQGTLVTVSS VL: EIVMTQSPAFLSVTPGEKVTITCKASQNVGTNVAWYQQKPDQAPKALIYSASYRYSGVPSRFSGSGSGTDFTLTISSLEAEDAATYYCQQYNSYPYMYTFGQGTKLEIK | 147 |
| Ab353 (antibody, V domains shown, humanized) VH: EVQLVQSGAEVKKPGTSVKLSCKASGYTFTSSAMQWVKQAPGQGLEWIGYIKPSSGYTKYNQKFKDKATLTADKSTSTAYMELSSLRSEDTAVYYCARDYYGSSSWFAYWGQGTLVTVSS VL: EIVMTQSPAFLSVTPGEKVTITCKASQNVGTNVAWYQQKPDQAPKALIYSASYRYSGVPSRFSGSGSGTDFTLTISSLEAEDAATYYCQQYNSYPYMYTFGQGTKLEIK | 384 |
